Experiment in all cases: pull-down
The target in one assay is T1, His×6-HDAC6-FLAG (human, UniProt Q9UBN7 1-1215).
T1 sequence (looked up): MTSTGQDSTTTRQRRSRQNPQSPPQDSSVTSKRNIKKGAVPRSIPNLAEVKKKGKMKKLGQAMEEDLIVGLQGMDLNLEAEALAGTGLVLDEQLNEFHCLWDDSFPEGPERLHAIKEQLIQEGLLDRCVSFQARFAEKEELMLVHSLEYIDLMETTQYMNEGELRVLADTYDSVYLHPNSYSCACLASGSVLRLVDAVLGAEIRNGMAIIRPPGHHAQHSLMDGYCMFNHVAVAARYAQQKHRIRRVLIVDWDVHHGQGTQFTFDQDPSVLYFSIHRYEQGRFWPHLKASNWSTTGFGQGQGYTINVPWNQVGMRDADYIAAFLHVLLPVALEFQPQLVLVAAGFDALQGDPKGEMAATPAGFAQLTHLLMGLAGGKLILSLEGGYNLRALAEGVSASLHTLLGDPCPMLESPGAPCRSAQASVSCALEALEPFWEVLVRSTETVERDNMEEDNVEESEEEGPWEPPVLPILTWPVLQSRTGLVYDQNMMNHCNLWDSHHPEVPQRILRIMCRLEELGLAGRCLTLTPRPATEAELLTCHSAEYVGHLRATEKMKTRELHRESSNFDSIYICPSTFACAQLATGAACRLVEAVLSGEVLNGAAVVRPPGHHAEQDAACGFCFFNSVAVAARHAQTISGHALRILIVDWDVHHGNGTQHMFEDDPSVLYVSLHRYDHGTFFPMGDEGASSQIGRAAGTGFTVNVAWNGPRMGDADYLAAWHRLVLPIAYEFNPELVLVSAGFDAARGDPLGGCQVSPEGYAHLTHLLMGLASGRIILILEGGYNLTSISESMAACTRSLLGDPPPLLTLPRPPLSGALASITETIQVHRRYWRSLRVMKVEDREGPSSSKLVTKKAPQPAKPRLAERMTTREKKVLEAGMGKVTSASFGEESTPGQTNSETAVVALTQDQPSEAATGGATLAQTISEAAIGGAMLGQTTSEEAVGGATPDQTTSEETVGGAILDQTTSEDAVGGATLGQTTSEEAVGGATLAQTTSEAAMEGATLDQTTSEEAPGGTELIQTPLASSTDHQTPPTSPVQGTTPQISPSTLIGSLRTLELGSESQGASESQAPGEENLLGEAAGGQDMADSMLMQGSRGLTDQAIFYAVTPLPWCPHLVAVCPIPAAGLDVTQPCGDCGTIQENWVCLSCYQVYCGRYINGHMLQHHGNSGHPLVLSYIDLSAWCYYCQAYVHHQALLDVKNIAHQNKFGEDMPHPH

In a further assay the target is T2, His×6-DD1-FLAG (human, UniProt Q9UBN7 106-439).
T2 sequence (looked up): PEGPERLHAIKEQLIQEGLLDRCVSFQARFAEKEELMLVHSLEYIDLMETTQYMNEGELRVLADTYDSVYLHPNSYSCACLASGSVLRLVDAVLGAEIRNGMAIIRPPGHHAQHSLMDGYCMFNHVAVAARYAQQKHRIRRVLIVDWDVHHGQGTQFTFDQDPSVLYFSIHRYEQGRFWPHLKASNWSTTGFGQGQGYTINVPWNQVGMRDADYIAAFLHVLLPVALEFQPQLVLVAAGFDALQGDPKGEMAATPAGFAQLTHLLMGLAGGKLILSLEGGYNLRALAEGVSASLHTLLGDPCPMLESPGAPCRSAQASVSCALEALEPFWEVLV

The target in the next assay is T3, His×6-DD2-FLAG (human, UniProt Q9UBN7 440-840).
T3 sequence (looked up): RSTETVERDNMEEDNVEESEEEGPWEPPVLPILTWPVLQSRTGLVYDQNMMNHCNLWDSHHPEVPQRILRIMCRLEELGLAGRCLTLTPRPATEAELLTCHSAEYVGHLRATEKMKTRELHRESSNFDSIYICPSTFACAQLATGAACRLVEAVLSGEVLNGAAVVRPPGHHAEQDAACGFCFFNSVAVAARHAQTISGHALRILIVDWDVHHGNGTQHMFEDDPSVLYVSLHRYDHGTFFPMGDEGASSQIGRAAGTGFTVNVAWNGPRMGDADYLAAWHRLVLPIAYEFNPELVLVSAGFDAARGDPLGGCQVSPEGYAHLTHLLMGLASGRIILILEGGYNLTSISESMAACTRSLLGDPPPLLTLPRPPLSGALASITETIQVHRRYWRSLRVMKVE

B1: GST-tagged parkin Linker domain (L) (domain or fragment, human, UniProt O60260 77-237, looked up)
chain: GQEMNATGGDDPRNAAGGCEREPQSLTRVDLSSSVLPGDSVGLAVILHTDSRKDSPPAGSPAGRSIYNSFYVYCKGPCQRVQPGKLRVQCSTCRQATLTLTQGPSCWDDVLIPNRMSGECQSPHCPGTSAEFFFKCGAHPTSDKETSVALHLIATNSRNIT
For B1, the binding result with His×6-HDAC6-FLAG and in the assay with His×6-DD1-FLAG was “binds” in each case.

B2: GST-tagged parkin RING2 domain (R2) (domain or fragment, human, UniProt O60260 395-465, looked up)
chain: ERAAEQARWEAASKETIKKTTKPCPRCHVPVEKNGGCMHMKCPQPQCRLEWCWNCGCEWNRVCMGDHWFDV
With B2, the binding result in the assay with His×6-DD2-FLAG and in the assay with His×6-HDAC6-FLAG was “binds” throughout.

B3: GST-tagged parkin RING1 domain (R1) (domain or fragment, human, UniProt O60260 217-310, looked up)
chain: TSDKETSVALHLIATNSRNITCITCTDVRSPVLVFQCNSRHVICLDCFHLYCVTRLNDRQFVHDPQLGYSLPCVAGCPNSLIKELHHFRILGEE
Consider B3, for which the binding result in the assay with His×6-HDAC6-FLAG and in the assay with His×6-DD1-FLAG was “binds” each time.

The values are drawn from PMC2680492 (The Journal of neuroscience : the official journal of the …, 2008).
